Test results published in PMC10950897 (Nature Communications, 2024).
Values belong to the binder of their own block, whether it stands above or below them. Where no end group is shown, it is not given here. The star is where a group is joined. Biotin = O=C1N[C@H]2[C@H](CS[C@H]2CCCCC(=O)*)N1

Columns and labels:
His6-p97 WT [1] = biological target: T1, His6-p97 WT (human, UniProt P55072 1-806); assay: pull-down; biotinylated VRM, VIM or VBM peptides immobilized on StrepTactin agarose, incubated with purified WT or mutant His6-p97, washed extensively in RIPA buffer, immunoblot; settings: both partners purified
T1 construct: p97/VCP, human; from plasmid pET15b-His6-p97; hexamer by mass photometry (535 kDa); also called recombinant p97; purified p97; source: E. coli BL21(DE3), purified (Ni-NTA, Superose 6)
T1 sequence (P55072 whole entry): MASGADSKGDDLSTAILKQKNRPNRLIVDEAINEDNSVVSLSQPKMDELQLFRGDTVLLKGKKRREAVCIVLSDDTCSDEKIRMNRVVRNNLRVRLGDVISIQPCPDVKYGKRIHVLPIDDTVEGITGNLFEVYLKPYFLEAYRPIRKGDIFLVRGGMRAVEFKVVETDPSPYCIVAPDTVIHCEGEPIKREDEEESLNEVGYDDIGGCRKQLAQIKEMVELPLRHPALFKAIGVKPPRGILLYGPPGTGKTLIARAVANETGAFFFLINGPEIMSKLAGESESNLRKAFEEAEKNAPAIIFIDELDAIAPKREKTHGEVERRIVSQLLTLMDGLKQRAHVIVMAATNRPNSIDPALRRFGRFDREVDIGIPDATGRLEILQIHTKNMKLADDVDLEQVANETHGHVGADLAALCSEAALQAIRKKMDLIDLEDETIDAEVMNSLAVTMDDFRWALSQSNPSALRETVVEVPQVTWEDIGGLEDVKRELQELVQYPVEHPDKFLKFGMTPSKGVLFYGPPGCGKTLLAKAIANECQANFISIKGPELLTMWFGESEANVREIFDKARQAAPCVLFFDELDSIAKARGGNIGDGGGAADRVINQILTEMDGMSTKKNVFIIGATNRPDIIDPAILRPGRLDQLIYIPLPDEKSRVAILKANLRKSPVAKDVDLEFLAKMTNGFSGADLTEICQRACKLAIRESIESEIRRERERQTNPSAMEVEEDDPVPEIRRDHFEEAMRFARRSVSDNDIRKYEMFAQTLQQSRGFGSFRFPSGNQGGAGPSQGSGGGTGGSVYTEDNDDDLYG

His6-p97 WT [2] = biological target: T1, His6-p97 WT; assay: SPR; Biacore T200, 25 C, His6-p97 amine-coupled to CM5 chip (~400 RU), Strep-HA-VCF1 full-length as analyte up to 100 nM, PBS-P with 0.5 mM TCEP, 1:1 model; settings: both partners purified

- binding result (His6-p97 WT [1]): binds
B1: VBM (ATXN3, aa275-295) peptide (peptide)
peptide: Biotin-NLTSEELRKRREAYFEKQQQK
notes: ATXN3 (ataxin-3), human, VBM motif, aa275-295; also called peptide spanning the VBM in ATXN3; source: synthetic peptide, bought: GenScript

- binding result (His6-p97 WT [1]): binds
B2: VIM (SVIP, aa14-39) peptide (peptide)
peptide: Biotin-PTPDLEEKRAKLAEAAERRQKEAAS
notes: SVIP, human, VIM motif; also called peptide spanning the VIM in SVIP; source: synthetic peptide, bought: GenScript

- Kd (His6-p97 WT [2]): ~10 nM
B3: Strep-HA-VCF1 WT (natural protein)
chain: not shown
notes: VCF1 (FAM104A), human, isoform 1, 186 amino acids; cDNA inserted into pcDNA5/FRT/TO/Strep-HA; also called recombinant VCF1; full-length VCF1; source: HEK293-EBNA1-6E, transfected, purified (Strep-Tactin, Superose 6)
